The values below come from patent US20250057927A1, “ALPHA-1 A[…] FROM YEAST FOR USE IN THE TREATMENT OF VIRAL INFECTIONS” (priority 2021, published 2025).

“Also recorded” adds a separate entry of the source. Structures can show the parent of a compound that is named as a salt.

One data set concerns PEDV. The note with it: pretreatment, Vero-E6 cells; cited from earlier work.
The subject of data set [1] is SARS-CoV-2. The note with it: pretreatment, Vero-E6 cells; cited from earlier work.
Data set [2] has as its system Main Protease of coronaviruses. The conditions noted are these: enzymatical assays; cited from earlier work.
Data set [3] deals with lentiviral SARS-CoV-2 pseudoparticles. Type of data set: cell-based.
The test system of another data set is Covid-19. Also noted: species or system patients. The note with it: in vivo.
Data set [4] relates to protease-mediated entry of SARS-CoV-2. The conditions noted are these: in vitro; cited from earlier work.
The target of data set [5] is TMPRSS2 of Caco2 cells (UniProt O15393). The data set can be described thus: cell-based or functional assay.
Sequence of TMPRSS2 of Caco2 cells (UniProt O15393) (O15393 whole entry): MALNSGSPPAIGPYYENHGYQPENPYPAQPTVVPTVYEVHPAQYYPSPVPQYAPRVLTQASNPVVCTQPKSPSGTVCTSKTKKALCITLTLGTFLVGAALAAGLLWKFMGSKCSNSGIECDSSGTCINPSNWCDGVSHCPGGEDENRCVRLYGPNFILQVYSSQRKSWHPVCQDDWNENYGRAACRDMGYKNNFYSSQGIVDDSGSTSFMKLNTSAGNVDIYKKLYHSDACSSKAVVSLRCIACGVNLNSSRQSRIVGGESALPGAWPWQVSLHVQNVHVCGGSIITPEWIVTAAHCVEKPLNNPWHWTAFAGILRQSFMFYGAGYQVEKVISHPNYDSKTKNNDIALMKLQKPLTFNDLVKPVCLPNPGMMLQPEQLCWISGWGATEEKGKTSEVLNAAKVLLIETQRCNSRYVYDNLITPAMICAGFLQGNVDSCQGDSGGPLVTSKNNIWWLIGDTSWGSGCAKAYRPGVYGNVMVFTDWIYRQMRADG
The target in data set [6] is TMPRSS2 of Caco2 cells (UniProt O15393 1-492). The data set can be described thus: cell-based or functional assay.
Sequence of TMPRSS2 of Caco2 cells (UniProt O15393 1-492) (O15393 whole entry): as above
Another data set deals with Caco-2 cells. The note with it: in the tested concentrations.
Data set [7] concerns the target T1, recombinant human TMPRSS2 (Homo sapiens, UniProt O15393).
T1 construct: purchased LSBio LS-G57269
The data set can be described thus: TMPRSS2 activity assay (fluorogenic reporter peptide substrate). The note with it: dose-dependent; read-out: IC50 of TMPRSS2 proteolytic activity. Type of data set: biochemical. The procedure:
The respective protease (TMPRSS2 or neutrophil elastase) is mixed with a serial dilution of rhAAT, camostat mesylate or Prolastin resulting in the formation of a complex between the test compound and the protease. Subsequently, a fluorogenic reporter peptide substrate is added. Upon cleavage of the reporter peptide substrate by the protease, a fluorescent dye is set free.
For assessing the activity of recombinant human TMPRSS2, 25 μl of serially diluted Prolastin, camostat mesylate or rhAAT is incubated with 25 μl of 2 μg/ml recombinant TMPRSS2 enzyme (LSBio #LS-G57269) in assay buffer (50 mM Tris-HCL, […] NaCl pH 8.0) for 15 min at 37° C. Next, 50 μl of 20 μM BOC-Gln-Ala-Arg-AMC protease substrate (Bachem #4017019) is added and incubated for 2 h at 37° C. Fluorescence intensity is measured after 2 h at an excitation wavelength of 380 nm and emission wavelength of 460 nm in a Synergy™ H1 microplate reader (BioTek) with Gen5 3.04 software. The assay is performed in a 96 well plate with flat bottom.

The subject of data set [8] is SARS-CoV-2. In kind it is cell-based.

T1 sequence (O15393 whole entry): as above

On to `COc1cc(O)c(CC=C(C)C)c(O)c1C(=O)/C=C/c1ccc(O)cc1` [Xanthohumol], for which the PEDV replication entry in the data set on PEDV is given as “restricted”. In addition, the SARS-CoV-2 replication result in the data set with SARS-CoV-2 [1] is on record as “restricted”. Moreover, the “inhibition of protease activities” value in data set [2] is listed as “inhibited protease activities”.
As for `CN(C)C(=O)COC(=O)Cc1ccc(OC(=O)c2ccc(NC(=N)N)cc2)cc1` [camostat mesylate, reference compound], in [3], the “inhibition of the entry of SARS-CoV-2 pseudoparticles” value is “inhibits the entry of SARS-CoV-2”.
As for AAT, in the data set on Covid-19, the “Covid-19 PCR test” value is recorded as “negative” and the symptoms entry is given as “significantly improved; also recorded: no symptoms”. For the same molecule, the “restriction of protease-mediated entry of SARS-CoV-2” value in data set [4] was “potently restricts”.
With Prolastin, in the data set on Covid-19, the Covid-19 rapid tests entry is given as “negative” and the symptoms result is reported as “no symptoms”. Also, the “inhibition of the entry of SARS-CoV-2 pseudoparticles” value in data set [3] is “inhibits the entry of SARS-CoV-2”.
For “Prolastin: human serum derived AAT (from UniProt P01009 25-418)”, in the data set with TMPRSS2 of Caco2 cells [5], the IC50 of inhibiting pseudoparticle entry into Caco2 cells (Prolastin) came out at 3160 µg/mL and the estimated IC90 of pseudoparticle entry into Caco2 cells, derived from FIG. 4 was 20000 µg/mL.

B1: rec α1AT from supernatant of Pichia pastoris X33, anion exchange fractions 52 and 53 (other)
chain: EDPQGDAAQKTDTSHHDQDHPTFNKITPNLAEFAFSLYRQLAHQSNSTNIFFSPVSIATAFAMLSLGTKADTHDEILEGLNFNLTEIPEAQIHEGFQELLRTLNQPDSQLQLTTGNGLFLSEGLKLVDKFLEDVKKLYHSEAFTVNFGDTEEAKKQINDYVEKGTQGKIVDLVKELDRDTVFALVNYIFFKGKWERPFEVKDATEEEDFHVDQVTTVKVPMMKRLGMFNIQHCKKLSSWVLLMKYLGNATAIFFLPDEGKLQHLENELTHDIITKFLENEDRRSASLHLPKLSITGTYDLKSVLGQLGITKVFSNGADLSGVTEEAPLKLSKAVHKAVLTIDEKGTEAAGAMFLEAIPMSIPPEVKFNKPFVFLMIEQNTKSPLFMGKVVNPTQK
Consider B1, for which, in the data set with TMPRSS2 of Caco2 cells [6], the “IC50 of inhibiting pseudoparticle entry into Caco2 cells (rec α1AT Fraction 52)” value was found to be 3060 µg/mL and the “IC50 of inhibiting pseudoparticle entry into Caco2 cells (rec α1AT Fraction 53)” value was 3960 µg/mL.

B2: rhAAT (protein)
chain: B1 chain
For the molecule B2, in the data set with Caco-2 cells, the “toxicity for Caco-2 cells” value is given as “nontoxic”. Besides, in [3], the “inhibition of the entry of SARS-CoV-2 pseudoparticles” value was “inhibits the entry of SARS-CoV-2 similar to Prolastin and camostat mesylate”; the pseudoparticle entry result is on record as “almost no pseudoparticle entry”. Also, in data set [7], the IC50 is approximately 350 nM. Moreover, in the data set with SARS-CoV-2 [8], the SARS-CoV-2 spike expression entry is on record as “less detectable than Prolastin treated HAECs”, the “inhibition of SARS-CoV-2 replication” value is “more effectively than Prolastin” and the viral titer entry is listed as “reduce viral titer”.
